Experimental data taken from IntAct's records for PubMed 17721437.

B1: Dynamin-1-like protein (Rattus norvegicus (Rat)), O35303 (parent)
chain: MEALIPVINKLQDVFNTVGADIIQLPQIVVVGTQSSGKSSVLESLVGRDLLPRGTGVVTRRPLILQLVHVSPEDKRKTTGEENDPATWKNSRHLSKGVEAEEWGKFLHTKNKLYTDFDEIRQEIENETERISGNNKGVSPEPIHLKVFSPNVVNLTLVDLPGMTKVPVGDQPKDIELQIRELILRFISNPNSIILAVTAANTDMATSEALKISREVDPDGRRTLAVITKLDLMDAGTDAMDVLMGRVIPVKLGIIGVVNRSQLDINNKKSVTDSIRDEYAFLQKKYPSLANRNGTKYLARTLNRLLMHHIRDCLPELKTRINVLAAQYQSLLNSYGEPVDDKSATLLQLITKFATEYCNTIEGTAKYIETSELCGGARICYIFHETFGRTLESVDPLGGLNTIDILTAIRNATGPRPALFVPEVSFELLVKRQIKRLEEPSLRCVELVHEEMQRIIQHCSNYSTQELLRFPKLHDAIVEVVTCLLRKRLPVTNEMVHNLVAIELAYINTKHPDFADACGLMNNNIEEQRRNRLARELPSAVSRDKSSKVPSALAPASQEPSPAASAEADGKLIQDNRRETKNVASAGGGIGDGGRIGDGGQEPTTGNWRGMLKTSKAEELLAEEKSKPIPIMPASPQKGHAVNLLDVPVPVARKLSAREQRDCEVIERLIKSYFLIVRKNIQDSVPKAVMHFLVNHVKDTLQSELVGQLYKSSLLDDLLTESEDMAQRRKEAADMLKALQGASQIIAEIRETHLW

Variants of: B1
Conditions: with kapca_rat Prkaca

Row | Variant | effect of a mutation on the interaction
1 | S656A | disrupting interaction
